Laboratory results reported in article PMC6958382, “27th Annual GP2A Medicinal Chemistry Conference” (Pharmaceuticals, 2019).

Molecular target: T1, β2-adrenergic receptor (β2-AR) (Homo sapiens (assumed), UniProt P07550)
T1 construct: β2-adrenoceptor (β2-AR), crystallised in the active state with a catecholamine-type agonist (super-epi or super-iso) and Nb6B9; Conference abstract (poster P20) with no methods; also called ß2-AR
Assay: crystal structure; co-crystal structures of β2-AR with super-epi or super-iso, bound to Nb6B9; active state of the receptor (Figure 17 legend)
Details: both partners purified

B1: Nb6B9 (VHH)
VHH: QVQLQESGGGLVQAGGSLRLSCAASGSIFALNIMGWYRQAPGKQRELVAAIHSGGTTNYANSVKGRFTISRDNAANTVYLQMNSLKPEDTAVYYCNVKDFGAIIYDYDYWGQGTQVTVSS
  binding result: binds
